Experimental findings from US20070185311A1 (EPIX MEDICAL INC A DELAWARE, published 2007) are described below.

By Kd is commonly meant a measure of binding affinity in units of concentration.

B1: L-P-C-D-Y-Y-G-T-C-MeL-Cmp (peptide)
peptide: LPCDYYGTC[MeL][Cmp]
modifications: cysteine pairing not given here; reading uncertain; also: printed as L-P-C-D-Y-Y-G-T-C-MeL-Cmp

Starred links: 1 amine or outer side, 2 acyl side, 3 side chain; linkers in the order of their positions; H or OH if unused. Positions of bridges follow the written chain, without caps; N, C: chain ends. Non-standard residues stand in square brackets, D forms with d. Primed or numbered codes have the meaning given here. No end group written: not given here. Tyr(3-NO2) = N[C@@H](Cc1ccc(O)c([N+](=O)[O-])c1)C(=O)O; Phe(4-OMe) = COc1ccc(C[C@H](N[*:1])C(=O)[*:2])cc1; Phe(3-CF3) = N[C@@H](Cc1cccc(C(F)(F)F)c1)C(=O)O; Phe(4-CF3) = N[C@@H](Cc1ccc(C(F)(F)F)cc1)C(=O)O; Bpa = N[C@@H](Cc1ccc(C(=O)c2ccccc2)cc1)C(=O)O; Phe(4-CH2NH2) = NCc1ccc(C[C@H](N)C(=O)O)cc1; Tyr(3-Cl) = N[C@@H](Cc1ccc(O)c(Cl)c1)C(=O)O; Tyr(3-I) = N[C@@H](Cc1ccc(O)c(I)c1)C(=O)O; Phe(3-OMe) = COc1cccc(C[C@H](N)C(=O)O)c1; Phe(4-Br) = N[C@@H](Cc1ccc(Br)cc1)C(=O)O; Phe(4-CN) = N#Cc1ccc(C[C@H](N)C(=O)O)cc1; Phe(4-NH2) = Nc1ccc(C[C@H](N)C(=O)O)cc1; Phe(2-OMe) = COc1ccccc1C[C@H](N)C(=O)O; Phe(3-Me) = Cc1cccc(C[C@H](N)C(=O)O)c1; Phe(4-F) = N[C@@H](Cc1ccc(F)cc1)C(=O)O; Phe(4-I) = N[C@@H](Cc1ccc(I)cc1)C(=O)O; Phe(4-Me) = Cc1ccc(C[C@H](N)C(=O)O)cc1; 1Nal = N[C@@H](Cc1cccc2ccccc12)C(=O)O; Hyp = O=C(O)[C@@H]1C[C@@H](O)CN1; hPhe = N[C@@H](CCc1ccccc1)C(=O)O; 3Pal = N[C@@H](Cc1cccnc1)C(=O)O; 4Pal = N[C@@H](Cc1ccncc1)C(=O)O; Tle = CC(C)(C)[C@H](N)C(=O)O; Tyr(2-F)′ = not defined here; Nle = CCCC[C@H](N)C(=O)O; MTyr = not defined here; nTyr = not defined here; Cmp = not defined here

The target of the assay is DD(E) fragment of fibrin. Nature of the assay: affinity to DD(E) fragment of fibrin.
[Phe(4-OMe)]HC[Hyp][Tyr(3-I)]DLCH[Bpa]L (disulfide 3-8 (inferred)) [F(4-OMe)-H-C-Hyp-Y(3-I)-D-L-C-H-Bpa-L] had a Kd of less than 100 nM. WEC[Hyp][Tyr(3-Cl)]GLCWIQ (disulfide 3-8 (inferred)) [W-E-C-Hyp-Y(3-Cl)-G-L-C-W-I-Q] displayed a Kd of less than 100 nM. [1Nal]HC[Hyp][Tyr(3-I)]DLCHI (disulfide 3-8 (inferred)) [1Nal-H-C-Hyp-Y(3-I)-D-L-C-H-I] registered a Kd of less than 100 nM. To [Phe(3-Me)]HC[Hyp][Tyr(3-I)]DLCHI (disulfide 3-8 (inferred)) [F(3-Me)-H-C-Hyp-Y(3-I)-D-L-C-H-I] belongs less than 100 nM; to [Phe(4-OMe)]HC[Hyp][Tyr(3-I)]DLCHI (disulfide 3-8 (inferred)) [F(4-OMe)-H-C-Hyp-Y(3-I)-D-L-C-H-I], less than 100 nM; to FHC[Hyp][Tyr(3-I)]DLCHI (disulfide 3-8 (inferred)) [F-H-C-Hyp-Y(3-I)-D-L-C-H-I], less than 100 nM. The figure for FHC[Hyp][Tyr(3-I)]DLCH[Phe(3-CF3)] (disulfide 3-8 (inferred)) [F-H-C-Hyp-Y(3-I)-D-L-C-H-F(3-CF3)] is less than 100 nM; for [Phe(4-CN)]HC[Hyp][Tyr(3-I)]DLCHI (disulfide 3-8 (inferred)) [F(4-CN)-H-C-Hyp-Y(3-I)-D-L-C-H-I] it is less than 100 nM. As for [Phe(34-F2)]HC[Hyp][Tyr(3-I)]DLCHI (disulfide 3-8 (inferred)) [F(34-F2)-H-C-Hyp-Y(3-I)-D-L-C-H-I], the Kd is less than 100 nM.

[4Pal]HC[Hyp][Tyr(3-I)]DLCHI (disulfide 3-8 (inferred)) [4Pal-H-C-Hyp-Y(3-I)-D-L-C-H-I] showed a dissociation constant Kd of less than 100 nM.

In turn, FHC[Hyp][Tyr(3-Cl)]DLCHIL (disulfide 3-8 (inferred)) [F-H-C-Hyp-Y(3-Cl)-D-L-C-H-I-L] registered a Kd of less than 100 nM. In turn, LPCDYYGTCXD (Bip at 10; dD at 11) [L-P-C-D-Y-Y-G-T-C-Bip-dD] came in with an equilibrium dissociation constant (Kd) of less than 10000 nM. The molecule FHC[Hyp][Tyr(3-Cl)]DLCHI (disulfide 3-8 (inferred)) [F-H-C-Hyp-Y(3-Cl)-D-L-C-H-I] displayed a Kd of less than 100 nM. For [nTyr]HC[Hyp][Tyr(3-I)]DLCHI (disulfide 3-8 (inferred); reading uncertain) [nTyr-H-C-Hyp-Y(3-I)-D-L-C-H-I], the Kd was less than 100 nM. With [Phe(4-I)]HC[Hyp][Tyr(3-I)]DLCHI (disulfide 3-8 (inferred)) [F(4-I)-H-C-Hyp-Y(3-I)-D-L-C-H-I], the Kd is less than 100 nM. For [Phe(4-OMe)]HC[Hyp][Tyr(3-I)]DLCH[Bpa] (disulfide 3-8 (inferred)) [F(4-OMe)-H-C-Hyp-Y(3-I)-D-L-C-H-Bpa], the dissociation constant Kd was less than 100 nM.

[hPhe]HC[Hyp][Tyr(3-I)]DLCHI (disulfide 3-8 (inferred)) [Hfe-H-C-Hyp-Y(3-I)-D-L-C-H-I] returned a Kd of less than 100 nM. Molecule [Phe(4-NH2)]HC[Hyp][Tyr(3-I)]DLCHI (disulfide 3-8 (inferred)) [F(4-NH2)-H-C-Hyp-Y(3-I)-D-L-C-H-I] returned a dissociation constant (Kd) of less than 100 nM.

For FHC[Hyp][Tyr(3-I)]DLCH[Tle] (disulfide 3-8 (inferred)) [F-H-C-Hyp-Y(3-I)-D-L-C-H-Tle], the Kd is less than 100 nM. Consider [Phe(4-F)]HC[Hyp][Tyr(3-I)]DLCHI (disulfide 3-8 (inferred)) [F(4-F)-H-C-Hyp-Y(3-I)-D-L-C-H-I], for which the Kd was less than 100 nM. To B1 belongs less than 10000 nM; to FHC[Hyp][Tyr(3-I)]DLC[3Pal]I (disulfide 3-8 (inferred)) [F-H-C-Hyp-Y(3-I)-D-L-C-3Pal-I], less than 100 nM; to FHC[Hyp][Tyr(3-I)]DLCH[hPhe] (disulfide 3-8 (inferred)) [F-H-C-Hyp-Y(3-I)-D-L-C-H-Hfe], less than 100 nM.

Molecule [Tyr(3-NO2)]HC[Hyp][Tyr(3-I)]DLCHI (disulfide 3-8 (inferred)) [Y(3-NO2)-H-C-Hyp-Y(3-I)-D-L-C-H-I] had a Kd of less than 100 nM. In turn, [Phe(4-CH2NH2)]HC[Hyp][Tyr(3-I)]DLCHI (disulfide 3-8 (inferred)) [F(4-CH2NH2)-H-C-Hyp-Y(3-I)-D-L-C-H-I] had a Kd of less than 100 nM.

[Phe(4-OMe)][His(Bzl)]C[Hyp][Tyr(3-I)]DLCH[Bpa] (disulfide 3-8 (inferred)) [F(4-OMe)-H(Bzl)-C-Hyp-Y(3-I)-D-L-C-H-Bpa] displayed a dissociation constant (Kd) of less than 100 nM. In the case of FHC[Hyp][Tyr(3-I)]DLCH[Nle] (disulfide 3-8 (inferred); not fully specified) [F-H-C-Hyp-Y(3-I)-D-L-C-H-Nle], the Kd is less than 100 nM. Regarding [Phe(4-OMe)][His(Bzl)]C[Hyp][Tyr(3-I)]DLCHI (disulfide 3-8 (inferred)) [F(4-OMe)-H(Bzl)-C-Hyp-Y(3-I)-D-L-C-H-I], the Kd is less than 100 nM. In the case of FHC[Hyp][Tyr(3-I)]DLCH[Bpa] (disulfide 3-8 (inferred)) [F-H-C-Hyp-Y(3-I)-D-L-C-H-Bpa], the equilibrium dissociation constant (Kd) was less than 100 nM. To [Phe(4-Br)]HC[Hyp][Tyr(3-I)]DLCHI (disulfide 3-8 (inferred)) [F(4-Br)-H-C-Hyp-Y(3-I)-D-L-C-H-I] belongs less than 100 nM; to [Tyr(2-F)′]HC[Hyp][Tyr(3-I)]DLCHI (disulfide 3-8 (inferred)) [Y(2-F)-H-C-Hyp-Y(3-I)-D-L-C-H-I], less than 100 nM; to [MTyr]HC[Hyp][Tyr(3-I)]DLCHI (disulfide 3-8 (inferred); reading uncertain) [MTyr-H-C-Hyp-Y(3-I)-D-L-C-H-I], less than 100 nM.

LPCDYYGTCXD (Me-Bip at 10) [L-P-C-D-Y-Y-G-T-C-Me-Bip-D]: the Kd was less than 10000 nM. Turning to [Phe(3-OMe)]HC[Hyp][Tyr(3-I)]DLCHI (disulfide 3-8 (inferred)) [F(3-OMe)-H-C-Hyp-Y(3-I)-D-L-C-H-I], the Kd was less than 100 nM.

The molecule [Phe(4-OMe)]HC[Hyp][Tyr(3-Cl)]DLCHIL (disulfide 3-8 (inferred)) [F(4-OMe)-H-C-Hyp-Y(3-Cl)-D-L-C-H-I-L] gave a Kd of less than 100 nM. Molecule FHC[Hyp][Tyr(3-I)]DLCHIL (disulfide 3-8 (inferred)) [F-H-C-Hyp-Y(3-I)-D-L-C-H-I-L] yielded a Kd of less than 100 nM. In turn, [Phe(4-CF3)]HC[Hyp][Tyr(3-I)]DLCHI (disulfide 3-8 (inferred)) [F(4-CF3)-H-C-Hyp-Y(3-I)-D-L-C-H-I] returned a Kd of less than 100 nM. FHC[Hyp][Tyr(3-I)]DLCH[Phe(4-CF3)] (disulfide 3-8 (inferred)) [F-H-C-Hyp-Y(3-I)-D-L-C-H-F(4-CF3)] showed a Kd of less than 100 nM. Molecule [Phe(4-OMe)][His(Bzl)]C[Hyp][Tyr(3-Cl)]DLCHI (disulfide 3-8 (inferred)) [F(4-OMe)-H(Bzl)-C-Hyp-Y(3-Cl)-D-L-C-H-I] displayed a Kd of less than 100 nM. The molecule [Tyr(3-I)]HC[Hyp][Tyr(3-I)]DLCHI (disulfide 3-8 (inferred)) [Y(3-I)-H-C-Hyp-Y(3-I)-D-L-C-H-I] showed a Kd of less than 100 nM. Regarding [Phe(4-OMe)]HC[Hyp][Tyr(3-Cl)]DLCHI (disulfide 3-8 (inferred)) [F(4-OMe)-H-C-Hyp-Y(3-Cl)-D-L-C-H-I], the Kd is less than 100 nM. Regarding [Phe(2-OMe)]HC[Hyp][Tyr(3-I)]DLCHI (disulfide 3-8 (inferred)) [F(2-OMe)-H-C-Hyp-Y(3-I)-D-L-C-H-I], the Kd was less than 100 nM. The figure for [DopaMe2]HC[Hyp][Tyr(3-I)]DLCHI (disulfide 3-8 (inferred)) [DopaMe2-H-C-Hyp-Y(3-I)-D-L-C-H-I] is less than 100 nM; for F[His(Bzl)]C[Hyp][Tyr(3-Cl)]DLCHIL (disulfide 3-8 (inferred)) [F-H(Bzl)-C-Hyp-Y(3-Cl)-D-L-C-H-I-L] it is less than 100 nM. To [Phe(3-CF3)]HC[Hyp][Tyr(3-I)]DLCHI (disulfide 3-8 (inferred)) [F(3-CF3)-H-C-Hyp-Y(3-I)-D-L-C-H-I] belongs less than 100 nM; to LPCDYYGTCXD (Bip at 10) [L-P-C-D-Y-Y-G-T-C-Bip-D], less than 10000 nM. The molecule [Phe(4-OMe)]HC[Hyp][Tyr(3-Cl)]DLCH[Bpa]L (disulfide 3-8 (inferred)) [F(4-OMe)-H-C-Hyp-Y(3-Cl)-D-L-C-H-Bpa-L] returned a Kd of less than 100 nM. In turn, [Phe(4-Me)]HC[Hyp][Tyr(3-I)]DLCHI (disulfide 3-8 (inferred)) [F(4-Me)-H-C-Hyp-Y(3-I)-D-L-C-H-I] returned a dissociation constant Kd of less than 100 nM. [3Pal]HC[Hyp][Tyr(3-I)]DLCHI (disulfide 3-8 (inferred)) [3Pal-H-C-Hyp-Y(3-I)-D-L-C-H-I]: the Kd was less than 100 nM.
